Reference: article PMC12557367 (2025)
Numbered stars: 1 amine (or outer) side, 2 acyl side, 3 side chain; on linkers, the order of the positions; unused ones are H or OH. Bridge positions count the residues as written; N and C are the ends. Square brackets hold non-standard residues; d marks the D form. * marks the point of attachment. (R)‑NODAGA = O=C(O)CN1CCN(CC(=O)O)CCN([C@H](CCC(=O)*)C(=O)O)CC1; DOTA = O=C(O)CN1CCN(CC(=O)O)CCN(CC(=O)*)CCN(CC(=O)O)CC1; TATA = O=C(CC[*:1])N1CN(C(=O)CC[*:2])CN(C(=O)CC[*:3])C1; Cys(et) = S-ethylcysteine, CCSC[C@H](N[*:1])C(=O)[*:2]; Ser(et) = O-ethylserine, CCOC[C@H](N[*:1])C(=O)[*:2]; 1Nal = N[C@@H](Cc1cccc2ccccc12)C(=O)O; 2Nal = N[C@@H](Cc1ccc2ccccc2c1)C(=O)O; Hyp = O=C(O)[C@@H]1C[C@@H](O)CN1; hArg = N=C(N)NCCCC[C@H](N)C(=O)O; Met(O) = CS(=O)CC[C@H](N)C(=O)O; SeMet = C[Se]CC[C@H](N)C(=O)O; Nle = CCCC[C@H](N)C(=O)O

T1: recombinant human nectin-4 (human, UniProt Q96NY8 32-349)
T1 chain: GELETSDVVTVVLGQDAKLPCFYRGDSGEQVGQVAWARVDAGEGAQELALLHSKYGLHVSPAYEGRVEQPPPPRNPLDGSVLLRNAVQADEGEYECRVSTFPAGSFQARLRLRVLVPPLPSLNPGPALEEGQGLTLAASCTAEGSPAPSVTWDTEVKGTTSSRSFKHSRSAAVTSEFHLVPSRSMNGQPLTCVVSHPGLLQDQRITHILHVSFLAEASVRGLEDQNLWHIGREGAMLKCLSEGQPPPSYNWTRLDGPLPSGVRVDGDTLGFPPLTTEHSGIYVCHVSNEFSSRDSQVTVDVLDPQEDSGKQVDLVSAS


Experiments:
[1] = target: T1, recombinant human nectin-4; experiment: SPR
[2] = target: T1, recombinant human nectin-4; experiment: FP
[3] = target: T1, recombinant human nectin-4; experiment: SPR

Row | Binder | Kd [1] | IC50 [2] | koff [3]
1 | {(R)‑NODAGA}-CP[2Nal][dD]CM[hArg]DWSTP[Hyp]WC-NH2 (linker 1-5-15 via TATA) [9] | 2.85 nM | 270 nM | 0.0361 s⁻¹
2 | {(R)‑NODAGA}-CP[1Nal][dD]CM[hArg]DWSTP[Hyp]WC-NH2 (linker 1-5-15 via TATA) [1e] |  | 35.6 nM | 
3 | {(R)‑NODAGA}-CP[1Nal][dD]C[SeMet][hArg]DWSTP[Hyp]WC-NH2 (linker 1-5-15 via TATA) [5] |  | 48.7 nM | 
4 | {(R)‑NODAGA}-CP[1Nal][dD]C[Nle][hArg]DWSTP[Hyp]WC-NH2 (linker 1-5-15 via TATA; also: NODAGA complexed with natCu) [natCu-3a] |  | 45.4 nM | 
5 | {(R)‑NODAGA}-CP[1Nal][dD]C[Ser(et)][hArg]DWSTP[Hyp]WC-NH2 (linker 1-5-15 via TATA; SMILES CCOC[C@@H]1NC(=O)[C@@H]2CSCCC(=O)N3CN(CN(C3)C(=O)CCSC[C@H](NC(=O)CC[C@H](C(=O)O)N3CCN(CC(=O)O)CCN(CC(=O)O)CC3)C(=O)N3CCC[C@H]3C(=O)N[C@@H](Cc3cccc4ccccc34)C(=O)N[C@H](CC(=O)O)C(=O)N2)C(=O)CCSC[C@@H](C(N)=O)NC(=O)[C@H](Cc2c[nH]c3ccccc23)NC(=O)[C@@H]2C[C@@H](O)CN2C(=O)[C@@H]2CCCN2C(=O)[C@H]([C@@H](C)O)NC(=O)[C@H](CO)NC(=O)[C@H](Cc2c[nH]c3ccccc23)NC(=O)[C@H](CC(=O)O)NC(=O)[C@H](CCCCNC(=N)N)NC1=O) [6] |  | 379 nM | 
6 | {DOTA}-CP[2Nal][dD]CMRDWSTP[Hyp]WC-OH (linker 1-5-15 via TATA) [8d (N188)] |  | 4220 nM | 
7 | {(R)‑NODAGA}-CP[1Nal][dD]CM[hArg]DWSTP[Hyp]WC-NH2 (linker 1-5-15 via TATA; also: NODAGA complexed with natGa) [natGa-1e] |  | 203 nM | 
8 | {(R)‑NODAGA}-CP[1Nal][dD]C[Nle][hArg]DWSTP[Hyp]WC-NH2 (linker 1-5-15 via TATA) [3a] |  | 41.6 nM | 
9 | {(R)‑NODAGA}-CP[2Nal][dD]CMRDWSTP[Hyp]WC-NH2 (linker 1-5-15 via TATA) [8a] |  | 479 nM | 
10 | {(R)‑NODAGA}-CP[1Nal][dD]CMRDWSTP[Hyp]WC-NH2 (linker 1-5-15 via TATA) [10] |  | 32.1 nM | 0.00308 s⁻¹
11 | {(R)‑NODAGA}-CP[1Nal][dD]C[Met(O)][hArg]DWSTP[Hyp]WC-NH2 (linker 1-5-15 via TATA) [2] |  | 568 nM | 
12 | H-CP[1Nal][dD]CM[hArg]DWSTP[Hyp]WC-NH2 (linker 1-5-15 via TATA) [1c] |  | 51.8 nM | 
13 | {(R)‑NODAGA}-CP[1Nal][dD]C[Cys(et)][hArg]DWSTP[Hyp]WC-NH2 (linker 1-5-15 via TATA; SMILES CCSC[C@@H]1NC(=O)[C@@H]2CSCCC(=O)N3CN(CN(C3)C(=O)CCSC[C@H](NC(=O)CC[C@H](C(=O)O)N3CCN(CC(=O)O)CCN(CC(=O)O)CC3)C(=O)N3CCC[C@H]3C(=O)N[C@@H](Cc3cccc4ccccc34)C(=O)N[C@H](CC(=O)O)C(=O)N2)C(=O)CCSC[C@@H](C(N)=O)NC(=O)[C@H](Cc2c[nH]c3ccccc23)NC(=O)[C@@H]2C[C@@H](O)CN2C(=O)[C@@H]2CCCN2C(=O)[C@H]([C@@H](C)O)NC(=O)[C@H](CO)NC(=O)[C@H](Cc2c[nH]c3ccccc23)NC(=O)[C@H](CC(=O)O)NC(=O)[C@H](CCCCNC(=N)N)NC1=O) [7] |  | 151 nM | 
14 | {DOTA}-CP[1Nal][dD]CM[hArg]DWSTP[Hyp]WC-NH2 (linker 1-5-15 via TATA) [1f] |  | 177 nM | 
15 | {(R)‑NODAGA}-CP[1Nal][dD]CM[hArg]DWSTP[Hyp]WC-NH2 (linker 1-5-15 via TATA; also: NODAGA complexed with natCu) [natCu-1e] |  | 23.7 nM | 
16 | Ac-CP[1Nal][dD]C[Nle][hArg]DWSTP[Hyp]WC-NH2 (linker 1-5-15 via TATA) [3b] |  | 31.5 nM | 
17 | Ac-CP[1Nal][dD]CM[hArg]DWSTP[Hyp]WC-NH2 (linker 1-5-15 via TATA) [1d (BCY8126)] |  | 34.7 nM | 
18 | {DOTA}-CP[2Nal][dD]CMRDWSTP[Hyp]WC-NH2 (linker 1-5-15 via TATA) [8c] |  | 3290 nM | 
